# According to US20200338209A1, “ANTI-B7-H3 ANTIBODIES AND ANTIBODY DRUG CONJUGATES” (AbbVie Inc., priority 2016, published 2020):
# T1: human B7-H3 (4Ig-B7-H3 variant) (Homo sapiens, UniProt Q5ZPR3)
# T1 construct: His tag (6xHis) (C)
# T1 sequence (Q5ZPR3 with tags, fused parts or gaps): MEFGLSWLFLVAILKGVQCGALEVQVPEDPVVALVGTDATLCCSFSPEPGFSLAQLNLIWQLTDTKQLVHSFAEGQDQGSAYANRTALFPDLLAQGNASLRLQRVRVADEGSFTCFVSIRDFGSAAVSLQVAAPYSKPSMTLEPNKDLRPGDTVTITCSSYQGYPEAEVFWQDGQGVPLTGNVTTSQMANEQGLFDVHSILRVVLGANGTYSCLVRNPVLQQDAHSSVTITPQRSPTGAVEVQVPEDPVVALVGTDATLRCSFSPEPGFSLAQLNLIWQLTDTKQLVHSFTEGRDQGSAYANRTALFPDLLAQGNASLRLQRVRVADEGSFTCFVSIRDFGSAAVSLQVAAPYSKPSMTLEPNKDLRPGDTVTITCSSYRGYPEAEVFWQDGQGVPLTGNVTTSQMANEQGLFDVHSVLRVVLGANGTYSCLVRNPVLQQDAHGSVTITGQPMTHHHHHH
# Tests used:
# [1] = biological target: T1, human B7-H3 (4Ig-B7-H3 variant); test: Biacore T200 SPR binding kinetics, mAb capture, soluble ECD of human B7-H3; settings: 1:1 binding model
# Description: (§1) The binding affinity of the purified anti-B7-H3 monoclonal antibodies was determined by surface […]. […] The binding kinetics were derived from SPR measurements using a Biacore T200 instrument and a mAb capture approach (as described in the materials and methods below).
# (§2) Biacore T200 SPR instruments were used to measure the binding kinetics of human B7-H3 (4Ig-B7-H3 variant) (analyte) binding to various mAbs (ligands). The assay format was Fc-based capture via immobilized anti-mouse (Fc) (Pierce 31170) or immobilized anti-human (Fc) (Pierce 31125). A standard amine coupling protocol was employed to immobilize the capture reagents via primary amines to the carboxy-methyl (CM) dextran surface of CM5 sensorchips (Biacore); capture antibodies were coupled to a level of approximately 5000RU. For binding kinetic measurements the assay buffer was HBS-EP+ (Biacore): 10 mM Hepes, pH7.4, 150 mM NaCl, 3 mM EDTA, 0.05% polysorbate 20. During the assay, all measurements were referenced against the capture surface alone. Each assay cycle consisted of the following steps: 1) Capture of ligand to approximately 50RU; 2) Analyte injection over both reference and test surface, 240 μL at 80 μL/min, after which the dissociation was monitored for 900 seconds at 80 μL/min; 3) Regeneration of capture surface with low pH glycine. For kinetic determinations analyte injections were 3-point, 9-fold dilution series of 900 nM, 100 nM and 11.11 nM, buffer only injections were included for secondary referencing. Data were processed and fit to a 1:1 binding model using Biacore T200 Evaluation Software to determine the binding kinetic rate constants, ka (on-rate) and kd (off-rate), and the equilibrium dissociation constant (affinity, KD).
# cyno B7-H3 = test: Biacore T200 SPR binding kinetics, mAb capture, soluble ECD of cyno B7-H3; design: species or system cynomolgus monkey; settings: 1:1 binding model
# Sequence of cyno B7-H3 (as listed by the source): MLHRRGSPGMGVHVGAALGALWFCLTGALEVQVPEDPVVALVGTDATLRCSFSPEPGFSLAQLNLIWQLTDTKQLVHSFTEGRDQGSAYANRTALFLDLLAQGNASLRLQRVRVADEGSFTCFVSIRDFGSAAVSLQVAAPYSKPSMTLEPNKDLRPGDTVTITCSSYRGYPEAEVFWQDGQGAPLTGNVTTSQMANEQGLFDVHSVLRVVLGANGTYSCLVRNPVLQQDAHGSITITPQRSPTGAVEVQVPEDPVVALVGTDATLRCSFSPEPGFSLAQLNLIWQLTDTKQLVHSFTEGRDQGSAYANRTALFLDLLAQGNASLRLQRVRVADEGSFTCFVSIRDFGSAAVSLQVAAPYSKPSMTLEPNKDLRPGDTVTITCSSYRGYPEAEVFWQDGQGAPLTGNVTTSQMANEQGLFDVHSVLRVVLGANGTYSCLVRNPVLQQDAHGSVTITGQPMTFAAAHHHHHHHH
# Description: [The source words this procedure for another species and reports this species under the same test.] as §1, §2
Molecule,ka (1/Ms) huB7-H3 [1],kd (1/s) huB7-H3 [1],ka (1/Ms) cynoB7-H3 (cyno B7-H3),kd (1/s) cynoB7-H3 (cyno B7-H3)
"Ab4: murine anti-B7-H3 mAbs; mouse hybridoma derived (antibody, V domains shown) VH: QVQLQQPGAELVKPGASVKLSCKASGYSFTSYWMHWVKQRPGQGLEWIGMIHPNSGSNNYNEKFKSKATLTVDKSSNTAYMQLSSLTSEDSAVYYCARRLGLHFDYWGQGTTLTVSS VL: DIVMTQSQKFMSTPVGDRVSITCKASQNVGTAVAWYQQKPGQSPKLLIYSASNRYTGVPDRFTGSGSGTDFTLTISNMQSEDLADYFCQQYSSYPYTFGGGTKLEIK",690000 M⁻¹ s⁻¹,0.0011 s⁻¹,540000 M⁻¹ s⁻¹,0.00096 s⁻¹
"Ab12: murine anti-B7-H3 mAbs; mouse hybridoma derived (antibody, V domains shown) VH: EVQLVESGGGLVKPGGSLKLSCAASGFTFSSYAMSWVRQTPEKRLEWVATISSGTNYTYYPDSVKGRFTISRDNAKNTLYLQMTSLRSEDTAMYYCARQGRYSWIAYWGQGTLVTVSA VL: DIVLTQSPASLAVSLGQRATISCRASKSVSTSDYSYMHWNQQKPGQPPKLLIYLASNLESGVPARFSGSGSGTDFTLNIHPVEEEDAATYYCQHSRELLTFGAGTKLELK",38000 M⁻¹ s⁻¹,0.00025 s⁻¹,55000 M⁻¹ s⁻¹,1e-05 s⁻¹
"Ab5: murine anti-B7-H3 mAbs; mouse hybridoma derived (antibody, V domains shown) VH: QVQLQQPGDELVKPGASVKLSCKTSGYTFTTDWMHWVKQRPGQGLEWIGMIHPNSGTTNYNEKFKSKAALTVDKSSSTACMQLSSLTSEDSAVYYCARSYWKWYFDVWGTGTTVTVSS VL: QIVLTQSPAIMSASLGEEITLTCSASSSVSYMHWYQQKSGTSPKLLIYSTSNLASGVPSRFSGSGSGTFYSLTISSVEAEDSADYYCHQWTSYMYTFGGGTKLEIK",1.3e+06 M⁻¹ s⁻¹,0.012 s⁻¹,1.4e+06 M⁻¹ s⁻¹,0.28 s⁻¹
"Ab10: mouse hybridoma derived anti-B7-H3 monoclonal antibodies (mAbs) (antibody, V domains shown) VH: DVQLQESGPGLVKPSQSLSLTCTVTGYSITSDYAWNWIRQFPGNRLEWMGHINYSGITNYNPSLKSRISITRDTSKNQFFLQLYSVTTEDTATYFCARRSLFYYYGSSLYAMDYWGQGTSVTVSS VL: DVVMTQSPFSLPVSLGDQASISCRSSQSLVHSNGNTYLHWYLQKPGQSPKLLIYKVSNRFSGVPDRFSGSGSGTDFTLKISRVEAEDLGVYFCSQSTHVPWTFGGGTKLEIK",41000 M⁻¹ s⁻¹,0.00019 s⁻¹,200000 M⁻¹ s⁻¹,0.0042 s⁻¹
"Ab2: mouse hybridoma derived anti-B7-H3 monoclonal antibodies (mAbs) (antibody, V domains shown) VH: QVQLQQPGAELVKPGASVKLSCKASGYTFTSYWMHWVKQRPGQGLEWIGMIHPDSGTTNYNEKFRSKATLTVDKSSSTAYMQLSSLTSEDSAVYYCAVYYGSTYWYFDVWGTGTTVTVSS VL: DVVMTQTPLSLPVSLGDQAYISCRSSQSLVHINGNTYLHWYRQKPGQSPKLLIYKVSNRFSGVPDRFSGSGSGTDFTLKISRVEAEDLGVYFCSQSTHFPFTFGSGTKLEIK",120000 M⁻¹ s⁻¹,0.0029 s⁻¹,230000 M⁻¹ s⁻¹,0.011 s⁻¹
"Ab3: murine anti-B7-H3 mAbs; mouse hybridoma derived (antibody, V domains shown) VH: QVQLQQPGAELVKPGASVKLSCKASGYTFSSYWMHWVKQRPGQGLEWIGLIHPDSGSTNYNEMFKNKATLTVDRSSSTAYVQLSSLTSEDSAVYFCAGGGRLYFDYWGQGTTLTVSS VL: DVVMTQTPLSLPVSLGDQASISCRSSQSLVHSNGDTYLRWYLQKPGQSPKLLIYKVSNRFSGVPDRFSGSGSGTDFTLKITRVEAEDLGVYFCSQSTHVPYTFGGGTKLEIK",520000 M⁻¹ s⁻¹,0.01 s⁻¹,380000 M⁻¹ s⁻¹,0.01 s⁻¹
"Ab8: murine anti-B7-H3 mAbs; mouse hybridoma derived (antibody, V domains shown) VH: EVKLVESGGGLVKPGGSLKLSCAASGFTFSSYGMSWVRQTPEKRLEWVATISGGGNYTYCPDSVKGRFTISRDNAKNNLYLQMSSLRSEDTALYYCTRQRGYDYHYAMDFWGQGTSVTVSS VL: DIQMTQSPASLSVSVGETVTITCRASENIYSNLAWHQQKQGKSPQLLVYAATNLADGVPSRFSGNGSDTQYSLKINSLQSEDFGSYFCQNFWGTSWTFGGGTKLEIK",58000 M⁻¹ s⁻¹,9.9e-05 s⁻¹,160000 M⁻¹ s⁻¹,0.00026 s⁻¹
"Ab11: murine anti-B7-H3 mAbs; mouse hybridoma derived (antibody, V domains shown) VH: EVKLVESGGGLVQPGGSLRLSCATSGFTFTNYYMSWVRQPPGKALEWLGFIRNKANDYTTEYSASVKGRFTISRDNSQSILYLQMNTLRAEDSATYYCARESPGNPFAYWGQGTLVTVSA VL: DIVMTQSPSSLTVTAGEKVTMTCKSSQSLLNSGTQKNFLTWYQQKPGQPPKLLIYWASTRESGVPDRFTGSGSGTDFTLTISSVQAEDLAVYFCQNDYIYPLTFGAGTKLELK",20000 M⁻¹ s⁻¹,0.00089 s⁻¹,27000 M⁻¹ s⁻¹,7.2e-05 s⁻¹

# Now from value to molecule:
ka (1/Ms) huB7-H3 [1],kd (1/s) huB7-H3 [1],ka (1/Ms) cynoB7-H3 (cyno B7-H3),kd (1/s) cynoB7-H3 (cyno B7-H3),Molecule
330000 M⁻¹ s⁻¹,0.0058 s⁻¹,440000 M⁻¹ s⁻¹,0.0037 s⁻¹,"Ab13: mouse hybridoma derived anti-B7-H3 monoclonal antibodies (mAbs) (antibody, V domains shown) VH: DVQLQESGPDLVKPSQSLSLTCTVTGYSITSGYSWHWIRQFPGNKLEWMGYIHSSGSTNYNPSLKSRISINRDTSKNQFFLQLNSVTTEDTATYYCAGYDDYFEYWGQGTTLTVSS VL: DIVMTQSQKFMSTSVGDRVSVTCKASQNVGFNVAWYQQKPGQSPKALIYSASYRYSGVPDRFTGSGSGTDFTLTISNVQSEDLAEYFCQQYNSYPFTFGSGTKLEIK"
110000 M⁻¹ s⁻¹,0.0014 s⁻¹,690000 M⁻¹ s⁻¹,0.003 s⁻¹,"Ab14: mouse hybridoma derived anti-B7-H3 monoclonal antibodies (mAbs) (antibody, V domains shown) VH: EVKLVESGGGLVKPGGSLKLSCAASGFTFSSYGMSWVRQTPEKRLEWVATISGGGTNTYYPDSVEGRFTISRDNAKNFLYLQMSSLRSEDTALYYCARHYGSQTMDYWGQGTSVTVSS VL: DIQMTQSPASLSASVGETVTITCRTSGNIHNYLTWYQQKQGKSPQLLVYNAKTLADGVPSRFSGSGSGTQFSLKINSLQPEDFGSYYCQHFWSIMWTFGGGTKLEIK"
210000 M⁻¹ s⁻¹,3.6e-05 s⁻¹,240000 M⁻¹ s⁻¹,2.9e-05 s⁻¹,"Ab18: the murine monoclonal Ab18 (antibody, V domains shown) VH: QVQLQQSAAELARPGASVKMSCKASGYSFTSYTIHWVKQRPGQGLEWIGYINPNSRNTDYNQKFKDETTLTADRSSSTAYMQLISLTSEDSAVYYCARYSGSTPYWYFDVWGAGTTVTVSS VL: QIVLTQSPAILSASPGEKVTMTCRASSSVSYMNWYQQKPGSSPKPWIYATSNLASGVPARFSVSVSGTSHSLTISRVEAEDAATYYCQQWSSNPLTFGAGTKLELK"
140000 M⁻¹ s⁻¹,0.0032 s⁻¹,750000 M⁻¹ s⁻¹,0.0056 s⁻¹,"Ab16: mouse hybridoma derived anti-B7-H3 monoclonal antibodies (mAbs) (antibody, V domains shown) VH: EVKLLESGGGLVQPGGSLKLSCAASGFDFSRYWMSWVRQAPGKGLEWIGEINPDSSTINYTPSLKDKFIISRDNAKNTLYLQMSKVRSEDTALYYCARPGFGNYIYAMDYWGQGTSVTVSS VL: DIQMTQTTSSLSASLGDRVTINCRASQDISNFLNWYQQKPDGTVKLLIYYTSRLYLGVPSRFSGSGSGTDYSLTISNLEQEDIATYFCQQGNTLPPTFGGGTKLEIK"
